Assay results taken from patent publication EP0997477B1.
Where two headings read alike, the source gives them in different places.

What was measured:
[1] = molecular target: soluble single-chain I-A^d-OVA from insect (SF9) cells (SSC1 gene in pMBSC1.2) (mouse (I-A^d); chicken (OVA peptide)); assay: I-A^d sandwich ELISA (capture M5/114, detection biotinylated AMS-32.1), supernatant of virus clone F8
[2] = molecular target: soluble single-chain I-A^d-OVA from insect (SF9) cells (SSC1 gene in pMBSC1.2) (mouse (I-A^d); chicken (OVA peptide)); assay: I-A^d sandwich ELISA (capture M5/114, detection biotinylated AMS-32.1), cotransfection supernatant 1:8
[3] = molecular target: soluble single-chain I-A^d-OVA from insect (SF9) cells (SSC1 gene in pMBSC1.2) (mouse (I-A^d); chicken (OVA peptide)); assay: I-A^d sandwich ELISA (capture M5/114, detection biotinylated AMS-32.1), supernatant of virus clone C6
[4] = molecular target: soluble single-chain I-A^d-OVA with EE antibody tag (SCE1) secreted by transfected NSO cells (mouse (I-A^d); chicken (OVA peptide)); assay: I-A^d sandwich ELISA (capture M5/114, detection biotinylated AMS-32.1), undiluted supernatant of E10 (SCE1 transfectant)
[5] = molecular target: soluble single-chain I-A^d-OVA from insect (SF9) cells (SSC1 gene in pMBSC1.2) (mouse (I-A^d); chicken (OVA peptide)); assay: I-A^d sandwich ELISA (capture M5/114, detection biotinylated AMS-32.1), cotransfection supernatant 1:2
[6] = molecular target: membrane-bound single-chain I-A^d-OVA (SCT1) on transfected NSO cells (mouse (I-A^d); chicken (OVA peptide)); assay: flow cytometry, FITC-conjugated AMS 32.1 (1:100) on T6 (SCT1-transfectant)
[7] = molecular target: membrane-bound single-chain I-A^d-OVA (SCT1) on transfected NSO cells (mouse (I-A^d); chicken (OVA peptide)); assay: flow cytometry, FITC-conjugated AMS 32.1 (1:100) on T2 (SCT1-transfectant)
[8] = molecular target: Neuron Specific Enolase (NSE) in supernatant of SF9 cells infected with a recombinant Baculovirus; assay: I-A^d sandwich ELISA (capture M5/114, detection biotinylated AMS-32.1), NSE baculovirus supernatant as negative control
[9] = molecular target: soluble single-chain I-A^d-OVA from insect (SF9) cells (SSC1 gene in pMBSC1.2) (mouse (I-A^d); chicken (OVA peptide)); assay: I-A^d sandwich ELISA (capture M5/114, detection biotinylated AMS-32.1), sc I-A^d-OVA from insect cell culture (positive control)
[10] = molecular target: soluble single-chain I-A^d-OVA from insect (SF9) cells (SSC1 gene in pMBSC1.2) (mouse (I-A^d); chicken (OVA peptide)); assay: I-A^d sandwich ELISA (capture M5/114, detection biotinylated AMS-32.1), cotransfection supernatant 1:4
[11] = molecular target: membrane-bound single-chain I-A^d-OVA (SCT1) on transfected NSO cells (mouse (I-A^d); chicken (OVA peptide)); assay: flow cytometry, FITC-conjugated AMS 32.1 (1:100) on T12 (SCT1-transfectant)
[12] = molecular target: soluble single-chain I-A^d-OVA from insect (SF9) cells (SSC1 gene in pMBSC1.2) (mouse (I-A^d); chicken (OVA peptide)); assay: I-A^d sandwich ELISA (capture M5/114, detection biotinylated AMS-32.1), cotransfection supernatant undiluted
[13] = molecular target: soluble single-chain I-A^d-OVA with EE antibody tag (SCE1) secreted by transfected NSO cells (mouse (I-A^d); chicken (OVA peptide)); assay: I-A^d sandwich ELISA (capture M5/114, detection biotinylated AMS-32.1), undiluted supernatant of E11 (SCE1 transfectant)
[14] = molecular target: murine Class II MHC molecule I-A^d on A20.1-11 cells (mouse) (UniProt P04228); assay: flow cytometry, FITC-conjugated anti-IA^k control (1:100) on A20.1 cells (+ control)
UniProt P04228, sequence (P04228 24-256, chain 1 of 2): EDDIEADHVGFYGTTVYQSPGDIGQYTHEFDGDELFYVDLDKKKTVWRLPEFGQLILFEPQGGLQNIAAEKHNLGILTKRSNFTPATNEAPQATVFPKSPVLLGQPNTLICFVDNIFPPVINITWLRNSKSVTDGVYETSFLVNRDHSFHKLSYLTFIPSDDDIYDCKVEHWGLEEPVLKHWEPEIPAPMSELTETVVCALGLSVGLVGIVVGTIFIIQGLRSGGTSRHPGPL
UniProt P04228, sequence (P01921 28-265, chain 2 of 2, further chain): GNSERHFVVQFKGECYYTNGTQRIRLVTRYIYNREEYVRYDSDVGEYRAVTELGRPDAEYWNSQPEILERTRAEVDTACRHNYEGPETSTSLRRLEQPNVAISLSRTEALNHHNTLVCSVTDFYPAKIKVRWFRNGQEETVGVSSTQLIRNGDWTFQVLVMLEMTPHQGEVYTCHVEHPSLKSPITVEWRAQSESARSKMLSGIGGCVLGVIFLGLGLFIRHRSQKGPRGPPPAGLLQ

[15] = molecular target: full length I-A^d/OVA 323-339 MHC class II fusion complex (pJRS165.1) expressed on NSO cells (mouse; chicken) (UniProt P04228); assay: flow cytometry, FITC-conjugated anti-IA^k control (1:100) on clone NSO/IA^d/OVA.B2
[16] = molecular target: full length I-A^d/OVA 323-339 MHC class II fusion complex (pJRS165.1) expressed on NSO cells (mouse; chicken) (UniProt P04228); assay: flow cytometry, FITC-conjugated anti-IA^k control (1:100) on clone NSO/IA^d/OVA.B5
[17] = molecular target: full length I-A^d/OVA 323-339 MHC class II fusion complex (pJRS165.1) expressed on NSO cells (mouse; chicken) (UniProt P04228); assay: flow cytometry, FITC-conjugated anti-IA^k control (1:100) on clone NSO/IA^d/OVA.B4
[18] = molecular target: full length I-A^d/OVA 323-339 MHC class II fusion complex (pJRS165.1) expressed on NSO cells (mouse; chicken) (UniProt P04228); assay: flow cytometry, FITC-conjugated anti-IA^k control (1:100) on clone NSO/IA^d/OVA.A4
[19] = molecular target: T cell receptor of the murine T cell hybridoma DO11.10, specific for OVA 323-339 presented by I-A^d; assay: cell-based or functional assay
[20] = molecular target: T cell receptor of the murine T cell hybridoma DO11.10, specific for OVA 323-339 presented by I-A^d; assay: cell-based or functional assay; remark: listed apart in the source
[21] = molecular target: membrane-bound single-chain I-A^d-OVA (SCT1) on transfected NSO cells (mouse (I-A^d); chicken (OVA peptide)); assay: flow cytometry, FITC-conjugated 10-3.6 control (1:100) on T2 (SCT1-transfectant)
[22] = molecular target: membrane-bound single-chain I-A^d-OVA (SCT1) on transfected NSO cells (mouse (I-A^d); chicken (OVA peptide)); assay: flow cytometry, FITC-conjugated 10-3.6 control (1:100) on T12 (SCT1-transfectant)
[23] = molecular target: membrane-bound single-chain I-A^d-OVA (SCT1) on transfected NSO cells (mouse (I-A^d); chicken (OVA peptide)); assay: flow cytometry, FITC-conjugated 10-3.6 control (1:100) on T6 (SCT1-transfectant)

Substance: AMS-32.1 anti-IA^d (Pharmingen part number 06032D) (antibody)
- Absorbance (405 nm) [1]: 1.45 absorbance
- Absorbance (405 nm) [2]: 0.165 absorbance
- Absorbance (405 nm) [3]: 1.56 absorbance
- Absorbance (405 nm) [4]: 0.781 absorbance
- Absorbance (405 nm) [5]: 0.524 absorbance
- Mean Fluorescence (mean fluorescence) [6]: 418
- Mean Fluorescence (mean fluorescence) [7]: 613
- Absorbance (405 nm) [8]: 0.098 absorbance
- Absorbance (405 nm) [9]: 2.44 absorbance
- Absorbance (405 nm) [10]: 0.305 absorbance
- Mean Fluorescence (mean fluorescence) [11]: 911
- Absorbance (405 nm) [12]: 0.857 absorbance
- Absorbance (405 nm) [13]: 0.96 absorbance

Substance: FITC-conjugated anti-IA^k antibody (Pharmingen), isotype matched irrelevant antibody
- peak channel fluorescence [14]: 5 peak channel
- peak channel fluorescence [15]: 14 peak channel
- peak channel fluorescence [16]: 10 peak channel
- peak channel fluorescence [17]: 11 peak channel
- peak channel fluorescence [18]: 34 peak channel

Substance: OVA 323-339 peptide presented by I-A^d on A20 cells (from UniProt P04228 24-256; P01921 28-265) (peptide-MHC)
- IL-2 ELISA result (Absorbance); A20+OVA 323-339 peptide (positive control) [19]: 1.33 absorbance
- IL-2 ELISA result (Absorbance); A20+OVA 323-339 peptide (positive control) [20]: 1.45 absorbance

Substance: isotype matched FITC-conjugated anti-I-A^k antibody, 10-3.6 (PharMingen)
- Mean Fluorescence (mean fluorescence) [21]: 22
- Mean Fluorescence (mean fluorescence) [22]: 45.9
- Mean Fluorescence (mean fluorescence) [23]: 45.1

Substance: membrane-bound single-chain I-A^d-OVA (SCT1) on transfected NSO cells (peptide-MHC)
- IL-2 ELISA result (Absorbance); antigen presenting cell T2 (SCT1 transfectant) [19]: 0.758 absorbance
- IL-2 ELISA result (Absorbance); antigen presenting cell T6 (SCT1 transfectant) [19]: 0.307 absorbance
- IL-2 ELISA result (Absorbance); antigen presenting cell T12 (SCT1 transfectant) [20]: 1.03 absorbance

Substance: soluble single-chain I-A^d-OVA from insect (SF9) cells (SSC1 gene in pMBSC1.2) (peptide-MHC)
- IL-2 concentration in DO11 super; immobilized sc IA^d-OVA 78 ng/well [19]: 45 U/ml
- IL-2 concentration in DO11 super; immobilized sc IA^d-OVA 156 ng/well [19]: 100 U/ml
- IL-2 concentration in DO11 super; immobilized sc IA^d-OVA 312 ng/well [19]: 109 U/ml
- IL-2 concentration in DO11 super; immobilized sc IA^d-OVA 625 ng/well [19]: 116 U/ml
- IL-2 concentration in DO11 super; immobilized sc IA^d-OVA 1250 ng/well [19]: 126 U/ml
- IL-2 concentration in DO11 super; immobilized sc IA^d-OVA 2500 ng/well [19]: 143 U/ml
- IL-2 concentration in DO11 super; immobilized scIA^d-OVA 39 ng/well (extended dilution) [19]: 0 U/ml
- IL-2 concentration in DO11 super; immobilized scIA^d-OVA 78 ng/well (extended dilution) [19]: 17 U/ml
- IL-2 concentration in DO11 super; immobilized scIA^d-OVA 156 ng/well (extended dilution) [19]: 24 U/ml
- IL-2 concentration in DO11 super; immobilized scIA^d-OVA 312 ng/well (extended dilution) [19]: 35 U/ml
- IL-2 concentration in DO11 super; immobilized scIA^d-OVA 625 ng/well (extended dilution) [19]: 38 U/ml
- IL-4 concentration in DO11 super; immobilized sc IA^d-OVA 78 ng/well [19]: 7 U/ml
- IL-4 concentration in DO11 super; immobilized sc IA^d-OVA 156 ng/well [19]: 10 U/ml
- IL-4 concentration in DO11 super; immobilized sc IA^d-OVA 312 ng/well [19]: 16 U/ml
- IL-4 concentration in DO11 super; immobilized sc IA^d-OVA 625 ng/well [19]: 15 U/ml
- IL-4 concentration in DO11 super; immobilized sc IA^d-OVA 1250 ng/well [19]: 20 U/ml
- IL-4 concentration in DO11 super; immobilized sc IA^d-OVA 2500 ng/well [19]: 23 U/ml
- IL-r [IL-4] concentration in DO11 super; immobilized scIA^d-OVA 39 ng/well (extended dilution) [19]: 0 U/ml
- IL-r [IL-4] concentration in DO11 super; immobilized scIA^d-OVA 78 ng/well (extended dilution) [19]: 0.8 U/ml
- IL-r [IL-4] concentration in DO11 super; immobilized scIA^d-OVA 156 ng/well (extended dilution) [19]: 0.9 U/ml
- IL-r [IL-4] concentration in DO11 super; immobilized scIA^d-OVA 312 ng/well (extended dilution) [19]: 1.5 U/ml
- IL-r [IL-4] concentration in DO11 super; immobilized scIA^d-OVA 625 ng/well (extended dilution) [19]: 2 U/ml
